Reference: the RNAGym collection of RNA variant scans (doi:10.1073/pnas.2313332121)

B1: TPR t1 (parent)
chain: GACCAAUCUGCCCUCAGAGCUCGAGAACAUCUUCGGAUGCAGAGGAGGCAGGCUUCGGUGGCGCGAUAGCGCCAACGUCCUCAACCUCCAAUGCAUCCCACCACAUGAUGAUGCCUGAAGAGCCUUGGUUUUUUG

Variants of: B1
Assay: polymerase ribozyme fitness, log enrichment relative to wild type (log ratio); higher = more active; in vitro selection for triplet polymerase activity
Summary of the method: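 The heterodimeric triplet polymerase ribozyme's subunits were each mutagenized into PCR-built libraries and transcribed. Every library was selected once, in triplicate, by annealing with a biotinylated primer, the partner subunit and triplets, incubating frozen at −7 °C, gel-excising extended constructs, capturing on streptavidin beads and running RT-PCR. Input and output libraries were Illumina-sequenced, with genotypes kept only at ≥10 input reads and ≥1 read per output. Fitness, from inverse-variance-weighted replicate averages, is the base-2 logarithm of genotype enrichment over wild-type enrichment.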

First: GACCAAUCUGCCCUCAGAGCUAGAGAACAUGUUCGGAUGCAGAGGAGGCAGGCUUCGGUGGUGCGAUAGCGCCAACGUCCUCAACCUCCAAUGAAUCCCACCACAUGAUCAUGCCUGAAGAGCCUUGGUUUUUUG
Second: GACCAAUCUGCCUUCAGAGCUCGAGAACAUCUUCGGAUGCAGAGGAGGCAGGCUUCGGUGGCGCGAUAGCGCCAACGUCCUCAACCUCCAAUGCAUCCCACCACAUGAUCAUGCCUGAAGAGCCUUGGUUUUUUG
The “polymerase ribozyme fitness (log ratio)” value of the first is lower: -6.66 for the first, -3.69 for the second.

First: GACCAAUCUGCCCUCAGAGCUCGAGAACAUCUUCGGAUGCAGAGGAGGCAGGCUUCGGUGGCGCGAUAGCGCCAACGUCCUCAACCUCCAAUGCAUCCCACAACAUGAUGAUGCCUGAAGAGCGUUGGUUUUUUG
Second: GACCAAUCUGCCCUCAGAGCUCGAGAACAUCUUCGGAUGCAGAGGACGCAGGCUUCGGUGGCGCGAUAGCGCCAACGUCCUCAACCUCCUAUGCAUCCCACCACAUGAUGAUGCCUGAAGAGCCUUGCUUUUUUG
The “polymerase ribozyme fitness (log ratio)” value of the first is higher: 0.0453 for the first, -5.03 for the second.

Compared with GACCAAUCUGCCCUCAGAGCUCGAGAACAUCUUCGGAUGCAGAGGAGGCAGGCUUCGGUGGCGCGAUAGCGCCAACGACCUCAACCUCGAAUGCAUCCCACCACAUGAUGAUGCCUGAAGAGCCUUGGUUUUUUG, GACCAAUCUGCCCUCAGAGCUCGAGAACAUCUUCGGAUGCAGAGAAGGCAGGCUUCGGUGGCGCGAUAGCGCCAACGUCCUCAACCUCCAAUGCAUCCCACCACAUGAUGAUGCCUGAAGAGCCUUGAUUUUUUG is lower in “polymerase ribozyme fitness (log ratio)” value: -1.56 for the first, -2.84 for the second.

Going from GACCAAUCUGCUCUCAGAGCUCGAGAACAUCUUCGGAUGCAGAGGAGGCAGGCUUCGGUGGCGCGAUAGCGCCAACGUCCUCAACCUCCAAUGCAUCCCACCACAUGAUGAAGCAUGAAGAGCCUUGGUUUUUUG to GACCAAUCUGCCCUCAGAGCUCGAGAACUUCUUCGGAUGCAGAGGAGGCAGGCUUCGCUGGCGCGAUAGCGCCAACGUCCUCAACCUCCAAUGCAUCCCACCACAUGAUGAUGCCUGAACAGCAUUGGUUUUUUG, the “polymerase ribozyme fitness (log ratio)” value falls from 1.79 to -1.02.

First: GACCAAUCUGCCCUCAGAGCUCGAGAACAUCUUCGGAUGCAGAGGAGGCAGGCUUCGGUGGCGCGAUAGCGACAACGUCCUCAACCUCCAAUGCAUCCCACAACAUGAUGAUGCCUGAAGAGCCGUGGUUUUUUG
Second: GACCAAUCUGCCCUCAGAGCUCGAGAACAUCUUCGCAUGCAGAGGAGGCAGGCUUCGGUGGCGCGAUAGCGCCAAAGUUCUCAACCUCCAAUGCAUCCCACCACAUGAUGAUGCCUGAAGUGCCUUGGUUUUUUG
The “polymerase ribozyme fitness (log ratio)” value of the first is lower: -2.01 for the first, 1.44 for the second.

First: GACCAAUCUGCCUUCAGAGCUCGAGAACAUCUUCGAAUGCAGAGGAGGCAGGCUUCGGUGGCGUGAUAGCGCCAACGUCCUCAACCUCCAAUGCAUCCCACCACAUGAUGAUGCCUGAAGAGCCUUGGUUUUUUG
Second: GACCAAUCUGCCCUCAGAGCUCGAGAACAUCUUCGGAUGCAGAGGAGGCAGGCAUCGGUGGCGCGAUAGCGCCAACGUCCUCAACCGCCAAUGCAUCCCACCACAUGAUGAUGCCUGAAGAGACUUGGUUUUUUG
The “polymerase ribozyme fitness (log ratio)” value of the first is lower: -0.484 for the first, 0.724 for the second.

First: GACCAAUCUGCCCUCAGAGCUCGAGAAUAUCUUCGGAUGCAGAGGAGGCAGGCUUCGGUGGCGCGAUAGCGCCAACGUCCUCAACCUCCAAUGCAUCCCAUCACAUGAUGAUGCCUGAAUAGCCUUGGUUUUUUG
Second: GACCAAUCUGCCCUCAGAGCUCGAGAACAUCUUCGGAUGCAGAGGAGGCAGGCUUCGGUAGCGCGAUAGCGCCAACGUCCUCAACCUCUAAUGCUUCCCACCACAUGAUGAUGCCUGAAGAGCCUUGGUUUUUUG
The “polymerase ribozyme fitness (log ratio)” value of the first is lower: -3.5 for the first, -1.24 for the second.

Going from GACCAAUCUGCCCUCAGAGCUCGAGAACAUCUUCGGAUGCAGAGGAGGCAGGCUUGGGUGGCGCGAUAGCGCCAACGUGCUCAACCUCCAAUGCAUCCCACCACAUGAUGAUGCCUGAAGAGCUUUGGUUUUUUG to GACCAAUCUGCCCUCAGAGCUCGAGAACAUCUUCGGCUGCAGAGGAGGCAGGCUUCGGUGGCGCGAUAGCGCCAACGUCCUCAACCUCCAAUGCAUCCCACCACAUGAUGAUGCCUGAAUAGCCUUGGUUUUUUG, the “polymerase ribozyme fitness (log ratio)” value rises from -0.0923 to 0.436.

Going from GACCAAUUUGCCCUCAGAGCUCGAGAACAUCUUCGGAUGCAUAGGAGGCAGGCUUCGGUGGCGCGAUAGCGCGAACGUCCUCAACCUCCAAUGCAUCCCACCACAUGAUGAUGCCUGAAGAGCCUUGGUUUUUUG to GCCCAAUCUGCACUCAGAGCUCGAGAACAUCUUCGGAUGCAGAGGAGGCAGGCUUCGGUGGCGCGAUAGCGCCAACGUCCUCAACCUCCAAUGCAUCCCACCAUAUGAUGAUGCCUGAAGAGCCUUGGUUUUUUG, the “polymerase ribozyme fitness (log ratio)” value rises from -2.13 to -1.93.

Compared with GACCAAUAUGCCCUCAGAGCUCGAGAACAUCUUCGGAUCCAGAGGAGGCAGGGUUCGGUGCCGCGAUAGCGCCAACGUCCUCAACCUCCAAUGCAUCCCACCACAUGAUGAUGCCUGAAGAGCCUUGGUUUUUUG, GACCAAUCUGCCCCUAGAGCUCGAGAACAUCUUCGGAUACAGAGGAGGCAGGCUUCGGUGGCGCGAUAGCGGCAACGUCCUCAACCUCCAAUGCAUCCCACCACAUGAUGAUGCCUAAAGAGCCUUGGUUUUUUG is lower in “polymerase ribozyme fitness (log ratio)” value: -0.548 for the first, -1.31 for the second.

With GACCAAUCUGCCCUCAGAGCUCGAGAACAUCUUCGGAUGCAGAGGAGUCAGGCUUCGGUGGCGCGAUAGCGCCAACGUCCUCAACCGCCUAUGCAUCCCACCACAUGAUGAUGCCUGAAGAGCCUUGGUUUUUUG the “polymerase ribozyme fitness (log ratio)” value was -1.49.
